Results taken from patent US20230002480A1.

Assays:
Test in all cases: cell-based or functional assay
[1] = molecular target: HIV-1 Env of pseudovirus 191084 B7-19 (HIV-1)
[2] = molecular target: HIV-1 Env of pseudovirus 235-47 (HIV-1)
[3] = molecular target: HIV-1 Env of pseudovirus 3016.v5.c45 (HIV-1)
[4] = molecular target: HIV-1 Env of pseudovirus 3365.v2.c2 (HIV-1)
[5] = molecular target: HIV-1 Env of pseudovirus 62357_14_D3_4589 (HIV-1)
[6] = molecular target: HIV-1 Env of pseudovirus 6540.v4.c1 (HIV-1)
[7] = molecular target: HIV-1 Env of pseudovirus 6952.v1.c20 (HIV-1)
[8] = molecular target: HIV-1 Env of pseudovirus A07412M1.vrc12 (HIV-1)
[9] = molecular target: HIV-1 Env of pseudovirus BJOX009000.02.4 (HIV-1)
[10] = molecular target: HIV-1 Env of pseudovirus BJOX010000.06.2 (HIV-1)
[11] = molecular target: HIV-1 Env of pseudovirus BJOX015000.11.5 (HIV-1)
[12] = molecular target: HIV-1 Env of pseudovirus C1080.c03 (HIV-1)
[13] = molecular target: HIV-1 Env of pseudovirus C4118.c09 (HIV-1)
[14] = molecular target: HIV-1 Env of pseudovirus CNE53 (HIV-1)
[15] = molecular target: HIV-1 Env of pseudovirus Ce0682_E4 (HIV-1)
[16] = molecular target: HIV-1 Env of pseudovirus Ce2010_F5 (HIV-1)
[17] = molecular target: HIV-1 Env of pseudovirus Ce2060_G9 (HIV-1)
[18] = molecular target: HIV-1 Env of pseudovirus Du156.12 (HIV-1)
[19] = molecular target: HIV-1 Env of pseudovirus Du422.1 (HIV-1)
[20] = molecular target: HIV-1 Env of pseudovirus HIV-0013095-2.11 (HIV-1)
[21] = molecular target: HIV-1 Env of pseudovirus HIV-16845-2.22 (HIV-1)
[22] = molecular target: HIV-1 Env of pseudovirus MS208.A1 (HIV-1)
[23] = molecular target: HIV-1 Env of pseudovirus P1981_C5_3 (HIV-1)
[24] = molecular target: HIV-1 Env of pseudovirus PVO.4 (HIV-1)
[25] = molecular target: HIV-1 Env of pseudovirus Q259.d2.17 (HIV-1)
[26] = molecular target: HIV-1 Env of pseudovirus Q461.e2 (HIV-1)
[27] = molecular target: HIV-1 Env of pseudovirus QH0692.42 (HIV-1)
[28] = molecular target: HIV-1 Env of pseudovirus R1166.c01 (HIV-1)
[29] = molecular target: HIV-1 Env of pseudovirus R3265.c06 (HIV-1)
[30] = molecular target: HIV-1 Env of pseudovirus REJO4541.67 (HIV-1)
[31] = molecular target: HIV-1 Env of pseudovirus T257-31 (HIV-1)
[32] = molecular target: HIV-1 Env of pseudovirus TRO.11 (HIV-1)
[33] = molecular target: HIV-1 Env of pseudovirus WEAU_d15_410_787 (HIV-1)
[34] = molecular target: HIV-1 Env of pseudovirus X1632_S2_B10 (HIV-1)
[35] = molecular target: HIV-1 Env of pseudovirus X2088_c9 (HIV-1)
[36] = molecular target: HIV-1 Env of pseudovirus ZM214M.PL15 (HIV-1)
[37] = molecular target: HIV-1 Env of pseudovirus ZM249M.PL1 (HIV-1)

In the case of 8ANC195 (antibody), the neutralization IC50 [1] is reported as > 50 mg/L, the neutralization IC80 [1] is reported as > 50 mg/L and the IC50, titer in TZM.bl cells [2] is reported as > 50 mg/L. The IC80, titer in TZM.bl cells [2] was > 50 mg/L, the IC50, titer in TZM.bl cells [3] was 0.87 mg/L and the IC80, titer in TZM.bl cells [3] was > 50 mg/L. The neutralization IC50 [4] was > 30 mg/L, the neutralization IC80 [4] was > 30 mg/L and the neutralization IC50 [5] was > 50 mg/L. For the same substance, the neutralization IC80 [5] was > 50 mg/L, the IC50, titer in TZM.bl cells [6] was > 50 mg/L and the IC80, titer in TZM.bl cells [6] was > 50 mg/L. It also gave an IC50, titer in TZM.bl cells [7] of 1.38 mg/L, an IC80, titer in TZM.bl cells [7] of 7.22 mg/L and an IC50, titer in TZM.bl cells [8] of 2.25 mg/L. It also gave an IC80, titer in TZM.bl cells [8] of 7.49 mg/L, an IC50, titer in TZM.bl cells [9] of 0.64 mg/L and an IC80, titer in TZM.bl cells [9] of 3.09 mg/L. It also gave an IC50, titer in TZM.bl cells [10] of 0.85 mg/L, an IC80, titer in TZM.bl cells [10] of 5.84 mg/L and an IC50, titer in TZM.bl cells [11] of 0.97 mg/L. It also gave an IC80, titer in TZM.bl cells [11] of 4.3 mg/L, an IC50, titer in TZM.bl cells [12] of 0.17 mg/L and an IC80, titer in TZM.bl cells [12] of 1.12 mg/L. For the same substance, the IC50, titer in TZM.bl cells [13] was 0.2 mg/L, the IC80, titer in TZM.bl cells [13] was 0.71 mg/L and the neutralization IC50 [14] was > 50 mg/L. The neutralization IC80 [14] was > 50 mg/L, the neutralization IC50 [15] was 0.2 mg/L and the neutralization IC80 [15] was 1.29 mg/L. For the same substance, the neutralization IC50 [16] was > 50 mg/L, the neutralization IC80 [16] was > 50 mg/L and the neutralization IC50 [17] was 6.2 mg/L. For the same substance, the neutralization IC80 [17] was > 50 mg/L, the neutralization IC50 [18] was 0.22 mg/L and the neutralization IC80 [18] was 1.56 mg/L. The neutralization IC50 [19] was > 50 mg/L, the neutralization IC80 [19] was > 50 mg/L and the neutralization IC50 [20] was 0.32 mg/L. For the same substance, the neutralization IC80 [20] was 1.85 mg/L, the neutralization IC50 [21] was 3.3 mg/L and the neutralization IC80 [21] was 20.1 mg/L. The neutralization IC50 [22] was > 50 mg/L, the neutralization IC80 [22] was > 50 mg/L and the IC50, titer in TZM.bl cells [23] was 0.14 mg/L. It also gave an IC80, titer in TZM.bl cells [23] of 1.15 mg/L, a neutralization IC50 [24] of 0.52 mg/L and a neutralization IC80 [24] of 1.87 mg/L. For the same substance, the neutralization IC50 [25] was > 50 mg/L, the neutralization IC80 [25] was > 50 mg/L and the neutralization IC50 [26] was 0.63 mg/L. The neutralization IC80 [26] was 2.51 mg/L, the neutralization IC50 [27] was 2.71 mg/L and the neutralization IC80 [27] was 17.1 mg/L. The IC50, titer in TZM.bl cells [28] was 4.83 mg/L, the IC80, titer in TZM.bl cells [28] was 4.83 mg/L and the IC50, titer in TZM.bl cells [29] was 50 mg/L. The IC80, titer in TZM.bl cells [29] was > 50 mg/L, the neutralization IC50 [30] was 0.08 mg/L and the neutralization IC80 [30] was 0.68 mg/L. It also gave a neutralization IC50 [31] of 0.32 mg/L, a neutralization IC80 [31] of 3.89 mg/L and a neutralization IC50 [32] of 0.18 mg/L. The neutralization IC80 [32] was 0.89 mg/L, the neutralization IC50 [33] was > 50 mg/L and the neutralization IC80 [33] was > 50 mg/L. The IC50, titer in TZM.bl cells [34] was 0.47 mg/L, the IC80, titer in TZM.bl cells [34] was 4.11 mg/L and the IC50, titer in TZM.bl cells [35] was > 50 mg/L. For the same substance, the IC80, titer in TZM.bl cells [35] was > 50 mg/L, the neutralization IC50 [36] was 0.91 mg/L and the neutralization IC80 [36] was 12.3 mg/L. For the same substance, the neutralization IC50 [37] was > 50 mg/L and the neutralization IC80 [37] was > 50 mg/L.
